One may read the koff as the rate constant with which the complex falls apart. What is called kon is the second-order rate constant of association. As usually defined, the Kd is the free concentration of one partner at which half of the binding sites on the other are occupied at equilibrium, for simple one-to-one binding.

In assay [1] the target is T1, HBVc18 peptide-MHC complex (HBVc18pMHC), biotinylated recombinant tripartite complex of HLA-A*0201, human … (human; hepatitis B virus).
T1 construct: also called HLA-A*0201: HBc18; target peptide-MHC complex
As to the kind of experiment: SPR (ProteOn), biotinylated HBVc18pMHC on the NLC chip, DARPin protein injected, multi-trace fit.
Protocol: (§1) The binding affinities of the purified ankyrin repeat proteins on the HBVc18pMHC target were analyzed using a ProteOn Surface Plasmon Resonance (SPR) instrument (BioRad) and the measurement was performed according standard procedures known to the person skilled in the art.
(§2) Briefly, biotinylated HBVc18pMHC were diluted in PBST (PBS, pH 7.4 containing 0.005% Tween 20®) and coated on a NLC chip (BioRad) to a level of around 1000 resonance units (RU). […] No target regeneration was performed. The signals (i.e. resonance unit (RU) values) of the interspots were subtracted from the RU traces obtained after injection of ankyrin repeat protein. Based on the SPR traces obtained from the on-rate and off-rate measurements, the on- and off-rates of the corresponding ankyrin repeat proteins towards the pMHC complexes were determined.

The target in assay [2] is T1, HBVc18 peptide-MHC complex …. As to the kind of experiment: SPR (ProteOn), biotinylated HBVc18pMHC on NLC chip, ankyrin repeat protein injected, PBST.
Protocol: as §2
Dissociation constants (KD) were calculated from the estimated on- and off-rates using standard procedures known to the person skilled in the art.
The target is the same in assay [3]. Nature of the assay: SPR (ProteOn), biotinylated HBVc18pMHC on the NLC chip, DARPin protein injected, multi-trace fit [continued) D].
Protocol: as §1, §2
The target is the same in assay [4]. Nature of the assay: SPR (ProteOn), biotinylated HBVc18pMHC on the NLC chip, DARPin protein injected, multi-trace fit [continued) I].
Protocol: as §1, §2
Assay [5] shares this target. Nature of the assay: SPR (ProteOn), biotinylated HBVc18pMHC on the NLC chip, DARPin protein injected, multi-trace fit [continued) H].
Protocol: as §1, §2
For assay [6] the target is unchanged. Nature of the assay: SPR (ProteOn), biotinylated HBVc18pMHC on the NLC chip, DARPin protein injected, multi-trace fit. This is another data set of the same source.
Protocol: as §1, §2
For assay [7] the target is unchanged. Nature of the assay: SPR (ProteOn), biotinylated HBVc18pMHC on the NLC chip, DARPin protein injected, multi-trace fit [continued) J].
Protocol: as §1, §2
Assay [8] shares this target. As to the kind of experiment: SPR (ProteOn), biotinylated HBVc18pMHC on the NLC chip, DARPin protein injected, multi-trace fit. This is another data set of the same source.
Protocol: as §1, §2
Assay [9] has the same target. Nature of the assay: SPR (ProteOn), biotinylated HBVc18pMHC on the NLC chip, DARPin protein injected, multi-trace fit [continued) G].
Protocol: as §1, §2
Assay [10] has the same target. Nature of the assay: SPR (ProteOn), biotinylated HBVc18pMHC on the NLC chip, DARPin protein injected, multi-trace fit [continued) E].
Protocol: as §1, §2
Assay [11] shares this target. Nature of the assay: SPR (ProteOn), biotinylated HBVc18pMHC on the NLC chip, DARPin protein injected, multi-trace fit [continued) F].
Protocol: as §1, §2

B1: TCE DARPin® protein #16 (designed binder, not shown: small tags and cut ends)
chain: GSDLGHKLLFAASAGQDDEVRILLAAGADVNAKDESGQTPLHYAAFVGHLEIVEVLLKAGADVNAKDQWGHTPLHVAATFGHLEIVEVLLKAGADVNAQDTWGTTPADLAATFGHEDIAEVLQKAA
As to B1, in [1], the koff is 0.000307 s⁻¹ and the kon stood at 66100 M⁻¹ s⁻¹. For the same molecule, the Kd in assay [2] amounted to 4.65 nM.

B2: TCE DARPin® protein #20 (designed binder, not shown: small tags and cut ends)
chain: GSDLGFKLLEAALEGQDDEVRILLAAGADVNAKDESGQTPLHYAAFVGHLEIVEVLLKAGADVNAKDQWGHTPLHVAATFGHLEIVEVLLKAGADVNAQDTWGTTPADLAATFGHEDIAEVLQKAA
Regarding B2, in assay [3], the koff amounted to 3.26e-05 s⁻¹ and the kon is 44300 M⁻¹ s⁻¹. The Kd in assay [2] worked out at 0.736 nM.

B3: TCE DARPin® protein #25 (designed binder, not shown: small tags and cut ends)
chain: GSDLGSKLLYAAISGQDDEVRILLAAGADVNAKDESGQTPLHYAAFVGHLEIVEVLLKAGADVNAKDQWGHTPLHVAATFGHLEIVEVLLKAGADVNAQDTWGTTPADLAATFGHEDIAVVLQKAA
As for B3, in assay [4], the koff is 3.17e-05 s⁻¹ and the on-rate constant (kon) amounted to 30800 M⁻¹ s⁻¹. Also, the Kd in assay [2] stood at 1.03 nM.

B4: TCE DARPin® protein #24 (designed binder, not shown: small tags and cut ends)
chain: GSDLGWKLLHAATTGQDDEVRILLAAGADVNAKDESGQTPLHYAAFVGHLEIVEVLLKAGADVNAKDQWGHTPLHVAATFGHLEIVEVLLKAGADVNAQDTWGTTPADLAATFGHEDIAEVLQKAA
As to B4, the Kd in assay [2] came to 4.72 nM. In addition, in assay [5], the koff is 0.000288 s⁻¹ and the kon was 61100 M⁻¹ s⁻¹.

B5: TCE DARPin® protein #17 (designed binder, not shown: small tags and cut ends)
chain: GSDLGQKLLLAAAIGQDDEVRILLAAGADVNAKDESGHTPLHYAAHVGHLEIVEVLLKAGDVNAKDHRGFTPLHVAAQIGHLEIVEVLLKAGADVNAQDNWGITPADLAAWWGHEDIAEVLQKAA
Turning to B5, in [6], the koff stood at 6.24e-06 s⁻¹ and the kon came out at 16900 M⁻¹ s⁻¹. Moreover, the Kd in [2] came to 0.369 nM.

B6: TCE DARPin® protein #26 (designed binder, not shown: small tags and cut ends)
chain: GSDLGKKLLQAARAGQLDEVHELLKAGADVNAKDQHGKTPMHLAAQIGHLEIVEVLLKAGADVNAKDHIGWTPLHLAASVGHLEIVEVLLKAGADVNAKDQEGWTPLHVAAQLGHLEIVEVLLKAGADVNAQDKSGKTPADLAARAGHQDSAEVLQKAA
As for B6, in assay [7], the koff was 0.000812 s⁻¹ and the kon amounted to 87000 M⁻¹ s⁻¹. In assay [2], the Kd came to 9.33 nM.

B7: TCE DARPin® protein #18 (designed binder, not shown: small tags and cut ends)
chain: GSDLGYKLLTAAIVGQDDEVRILLAAGADVNAKDQSGLTPLHLAAAYGHLEIVEVLLKAGADVNAKDKHGRTPLHLAALEGHLEIVEVLLKAGADVNAQDQFGITPADLAAAVGHEDIAEVLQKAA
Take B7: the Kd in assay [2] is 7.15 nM. Besides, in [8], the koff was 0.00218 s⁻¹ and the kon is 305000 M⁻¹ s⁻¹.

B8: TCE DARPin® protein #23 (designed binder, not shown: small tags and cut ends)
chain: GSDLGQKLLTAAIVGQDDEVRILLAAGADVNAKDQSGLTPLHLAAAYGHLEIVEVLLKAGADVNAKDKHGRTPLHLAALEGHLEIVEVLLKAGADVNAQDQFGITPADLAAAVGHEDIAEVLQKAA
As to B8, in [9], the koff turned out to be 0.00274 s⁻¹ and the kon was 387000 M⁻¹ s⁻¹. In addition, in [2], the Kd is 7.1 nM.

B9: TCE DARPin® protein #21 (designed binder, not shown: small tags and cut ends)
chain: GSDLGIKLLFAANFGQDDEVRILLAAGADVNAKDQSGRTPLHLAALWGHLEIVEVLLKAGADVNAKDVFGLTPLHIAATFGHLEIVEVLLKAGVDVNAQDYTGHTPADLAALIGHEDIAEVLQKAA
Turning to B9, in [10], the koff turned out to be 0.00106 s⁻¹ and the kon was 115000 M⁻¹ s⁻¹. Further, the Kd in [2] was found to be 9.23 nM.

B10: TCE DARPin® protein #22 (designed binder, not shown: small tags and cut ends)
chain: GSDLGKKLLSAAQSGQDDEVRILLGAGADVNAKDKWGHTPLHLAAVKGHLEIAEVLLKAGADVNAKDEWGSTPLHLAASQGHLEIVEVLLKAGADVNAKDKKGATPLHLAALVGHLEIVEVLLKAVADVNAQDKSGKTPADLAARAGHQDIAEVLQKAA
Take B10: in [11], the koff worked out at 0.0115 s⁻¹ and the kon was determined as 833000 M⁻¹ s⁻¹. The Kd in assay [2] turned out to be 13.8 nM.

The values above are taken from patent US20230041822A1 (Molecular Partners, published 2023).
